Laboratory results published in article PMC8432889.

Molecular target: β-PIX (endogenous, Hap1 cells) (human (endogenous in Hap1)) (UniProt Q14155)
Sequence of UniProt Q14155 (Q14155 whole entry): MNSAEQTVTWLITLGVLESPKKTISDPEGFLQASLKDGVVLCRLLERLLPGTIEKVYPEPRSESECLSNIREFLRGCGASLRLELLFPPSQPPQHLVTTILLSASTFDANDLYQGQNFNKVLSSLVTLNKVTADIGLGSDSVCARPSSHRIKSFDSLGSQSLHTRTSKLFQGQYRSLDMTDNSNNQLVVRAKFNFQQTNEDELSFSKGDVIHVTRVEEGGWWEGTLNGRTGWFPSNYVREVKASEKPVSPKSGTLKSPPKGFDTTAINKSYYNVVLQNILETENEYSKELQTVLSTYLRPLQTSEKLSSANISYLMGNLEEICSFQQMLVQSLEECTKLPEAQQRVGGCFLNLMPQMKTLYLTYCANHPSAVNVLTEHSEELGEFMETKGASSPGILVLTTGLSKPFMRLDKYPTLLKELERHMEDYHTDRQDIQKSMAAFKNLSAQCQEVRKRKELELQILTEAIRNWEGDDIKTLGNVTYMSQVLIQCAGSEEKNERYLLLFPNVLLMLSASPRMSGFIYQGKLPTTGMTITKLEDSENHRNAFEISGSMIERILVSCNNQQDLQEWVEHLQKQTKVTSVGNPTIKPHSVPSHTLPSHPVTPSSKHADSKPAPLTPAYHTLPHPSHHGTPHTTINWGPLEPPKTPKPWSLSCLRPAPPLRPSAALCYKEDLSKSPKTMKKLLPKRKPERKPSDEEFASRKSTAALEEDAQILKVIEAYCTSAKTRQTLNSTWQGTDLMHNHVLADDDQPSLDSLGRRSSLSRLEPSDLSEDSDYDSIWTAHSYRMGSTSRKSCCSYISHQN

“Emerald-tagged PAK1, full length (from UniProt Q13153 1-545) (enzyme)” gave a Salmonella invasion into WT Hap1 cells treated with the inhibitor peptide PAK18 (PAK residues 187–203; 5 μM), percent impeded; negative control peptide had no effect of 55%.
